Assay results: paper PMC5556678 (Structure (London, England : 1993), 2017)
Values joined by “and” are separate entries in the source; they are usually repeats but may differ in a detail not shown here. Equal values may be shown once.

Columns and labels:
BanLec [1] = biological target: BanLec (Musa acuminata, UniProt O22321); experiment: HPLC depletion assay of released gp120; format: binding; conditions: 2-AB labelled gp120 N-glycans, 0-50 μM BanLec
BanLec [2] = biological target: BanLec (UniProt Q8L5H4); experiment: SAXS
BanLec [3] = biological target: BanLec (UniProt Q8L5H4); experiment: SEC-MALS
BanLec [4] = biological target: BanLec (UniProt Q8L5H4); experiment: ion mobility MS
BanLec [5] = biological target: BanLec (UniProt Q8L5H4); experiment: native MS
BanLec D38G = experiment: native MS
BanLec D133G = experiment: native MS
BanLec Y46K = experiment: native MS
BG505 SOSIP.664 = experiment: Negative-stain electron microscopy of BanLec with soluble Env trimer mimic; set-up: species or system HIV; conditions: incubation of BanLec with BG505 SOSIP.664
HIV fusion to HeLa cells = conditions: ref Swanson et al., 2010; cited from earlier work

CC(=O)N[C@H]1[C@H](O[C@H]2[C@H](O)[C@@H](NC(C)=O)C(O)O[C@@H]2CO)O[C@H](CO)[C@@H](O[C@@H]2O[C@H](CO[C@H]3O[C@H](CO[C@H]4O[C@H](CO)[C@@H](O)[C@H](O)[C@@H]4O[C@H]4O[C@H](CO)[C@@H](O)[C@H](O)[C@@H]4O)[C@@H](O)[C@H](O[C@H]4O[C@H](CO)[C@@H](O)[C@H](O)[C@@H]4O[C@H]4O[C@H](CO)[C@@H](O)[C@H](O)[C@@H]4O)[C@@H]3O)[C@@H](O)[C@H](O[C@H]3O[C@H](CO)[C@@H](O)[C@H](O)[C@@H]3O[C@H]3O[C@H](CO)[C@@H](O)[C@H](O)[C@@H]3O[C@H]3O[C@H](CO)[C@@H](O)[C@H](O)[C@@H]3O)[C@@H]2O)[C@@H]1O (some centres unmarked) [Man9]
depletion of glycan upon addition of BanLec (BanLec [1]): decreased considerably

BanLec (from UniProt Q8L5H4 1-141) (natural protein)
stoichiometry N (BanLec [2]): 4 | stoichiometry N (BanLec [3]): 4 | stoichiometry N (BanLec [4]): 4 | stoichiometry N (BanLec [5]): 4

BanLec D38G (natural protein)
stoichiometry N (BanLec D38G): 4

BanLec D133G (natural protein)
stoichiometry N (BanLec D133G): 4

BanLec Y46K (natural protein)
stoichiometry N (BanLec Y46K): 2 and 4

Man5
depletion of glycan upon addition of BanLec (BanLec [1]): not depleted

B1: BanLec: recombinant tetrameric plant (banana) lectin with anti-HIV activity, expressed in E. coli (protein)
chain: MNGAIKVGAWGGNGGSAFDMGPAYRIISVKIFSGDVVDAVDVTFTYYGKTETRHFGGSGGTPHEIVLQEGEYLVGMKGEFGNYHGVVVVGKLGFSTNKKSYGPFGNTGGTPFSLPIAAGKISGFFGRGGDFIDAIGVYLEP
modifications: left off: polyhistidine tag, N-terminal, cleaved
effect on soluble Env trimer mimic by negative-stain EM (BG505 SOSIP.664): aggregation | IC50, inhibition of HIV fusion to HeLa cells (HIV fusion to HeLa cells): low-nanomolar range
